Measurements published in publication PMC314469, “Protein Interaction Networks by Proteome Peptide Scanning” (PLoS Biology, 2004).

T1: amphyphisin SH3 (AMPH_HUMAN), P49418
T1 chain: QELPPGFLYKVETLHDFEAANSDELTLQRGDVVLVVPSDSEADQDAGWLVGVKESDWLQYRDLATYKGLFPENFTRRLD


How the values were obtained:
[1] = target: T1, amphyphisin SH3 (AMPH_HUMAN), P49418; experiment: SPOT array
[2] = target: endophilin SH3 (SH3G2_HUMAN), Q99962; experiment: SPOT array

Row | Binder | normalised SPOT signal, Boehringer light units (BLU); mean over the file's lines of this peptide [1] | normalised SPOT signal, Boehringer light units (BLU); mean over the file's lines of this peptide [2]
1 | ALLTPHRPGRALSF [Q9NZK9 120-133] | 5440 | 491
2 | GQSAPRRPSAGDGA [Q9P2C5 54-67] | 23.6 | 142
3 | GPILPKKPPVKPPT [Q9ULW0 414-428] | 44.6 | 1800
4 | GQVILRRPLDYEKN [Q9NPG4 302-315] | 19.8 | 20.9
5 | GRSALRRPWRKSGS [Q9BR44 22-35] | 531 | 160
6 | ALLDPRRPEIPTEQ [Q9NUC1 730-743] | 26.1 | 36.9
7 | GREAPGRPPRAVPK [Q9ULI4 1050-1063] | 2140 | 19300
8 | GNANIQRPSRKSVN [Q9NRA6 251-264] | 3260 | 166
9 | GRPRPRRPAQYPAR [Q9BTV6 2-15] | 73.1 | 649
10 | GNAGPRRPPGDPST [Q9C095 222-236] | 37.1 | 75.8
11 | GRAWLRRPHPRDVG [Q9H4N7 178-191] | 2.1 | 55.2
12 | GNIELKRPLIKAPS [Q9BW19 13-26] | 25.9 | 28.8
13 | GPAPLRRPDSSDDR [Q9Y687 56-69] | 46.8 | 45.8
14 | GPRPPPRPARHRSH [Q9P0U7 35-48] | 13100 | 28600
15 | GPERPKRPGSLLAP [Q9HCE9 774-787] | 2440 | 12300
16 | GQKLPRRPQPGPGE [Q9H8D9 660-673] | 14.9 | 43
17 | GRNDLKRPMQAPPG [Q9HD26 258-271] | 32.8 | 39.5

Continued, values first:

Row | normalised SPOT signal, Boehringer light units (BLU); mean over the file's lines of this peptide [1] | normalised SPOT signal, Boehringer light units (BLU); mean over the file's lines of this peptide [2] | Binder
18 | 211 | 135 | GRDFLQRPGRQPQA [O75016 262-275]
19 | 69 | 129 | GRTPPARPPQDPAE [BAC05028 186-200]
20 | 1070 | 972 | GPLDLRRPMRTVPG [Q96SD2 167-180]
21 | 2210 | 306 | GNDDPRRPSRSPPS [O15085 1403-1416]
22 | 8400 | 10700 | GPQRPRRPAKDAQP [Q12984 78-91]
23 | 20.9 | 2840 | GPPSPRRPLVPAGP [O00268 106-119]
24 | 1370 | 5310 | GPPPPPRPPFGRPP [O14776 57-71]
25 | 42.9 | 93.3 | GQRRLRRPLILGLG [O75761 132-145]
26 | 43.4 | 57.4 | GPSSPQKPPTPEET [P18887 443-457]
27 | 4840 | 111 | GQLQPSRPTRARGT [Q14163 165-178]
28 | 66.4 | 486 | GQQLPPRPPQSSSV [O15027 229-243]
29 | 1120 | 175 | GMEKIWRPNRVFSL [O60795 134-147]
30 | 11.4 | 116 | GPLGLRRPPSASSD [Q01167 591-604]
31 | 48.2 | 232 | GQDKPVKPPTKKSE [P20810 625-639]
32 | 2140 | 48.7 | GNLDIQRPKRKRKN [Q12972 185-198]
33 | 33.9 | 193 | GPGKPERPPPQGGD [P81489 112-126]
34 | 243 | 684 | GPSPPYRPEKLSSP [Q13495 380-393]
35 | 36.4 | 2140 | GSALPRRPLLSIPA [Q01974 4-17]
36 | 9.6 | 259 | GPAGPKRPVFILGE [O60307 800-813]
37 | 51.5 | 43.7 | GQKQPKRPRSESSS [O00467 395-408]
38 | 33 | 55.2 | ALLEPRRPPHDYMP [Q99946 106-119]
39 | 27.8 | 383 | GPAGLRRPPDKQPS [Q96CI4 37-50]
40 | 54.3 | 212 | GPYGPHRPPQPLPP [Q99687 39-53]
41 | 42.4 | 295 | ALKQLDRPEKGLSE [O14646 1427-1440]
42 | 1000 | 10700 | GPAPPPRPPQLERH [BAC05410 275-289]
